# Experimental data as given in patent publication US20040138118.
# Tests used:
# [1] = system: myostatin pro peptide (wild type)
# [2] = system: D76A mutant myostatin pro peptide
# Sequence of D76A mutant myostatin pro peptide (chain, as listed by the source D76A): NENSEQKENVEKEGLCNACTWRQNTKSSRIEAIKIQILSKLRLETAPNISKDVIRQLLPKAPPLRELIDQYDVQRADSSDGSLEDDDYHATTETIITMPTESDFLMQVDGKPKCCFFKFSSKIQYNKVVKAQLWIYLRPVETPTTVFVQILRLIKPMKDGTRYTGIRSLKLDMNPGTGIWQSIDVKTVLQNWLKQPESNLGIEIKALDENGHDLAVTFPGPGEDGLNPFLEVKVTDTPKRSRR
substance,measurement,setting,value
mammalian Tolloid (mTLD),"partial proteolytic cleavage of the pro peptide in the latent complex, western blot (FIG. 3E)",[1],mTLD was consistently less active than the other three
same,proteolytic cleavage of free pro peptide,[1],All four of these proteinases also cleaved pro peptide that had been purified away from the C-terminal dimer
same,"proteolytic cleavage, SDS-PAGE and western blot with anti-pro peptide antiserum",[1],A discrete proteolytic cleavage product of the pro peptide was detected in each reaction containing one of the four proteases
same,"proteolytic cleavage of the mutant pro peptide in the latent complex, western blot (FIGS. 3D and E)",[2],completely resistant to proteolysis by each of the four proteinases
